Assay results reported in PMC3538638, “On the Molecular Basis of D-Bifunctional Protein Deficiency Type III” (PLoS ONE, 2013).

B1: HsDH(E232K), patient variant of the 3R-hydroxyacyl-CoA dehydrogenase fragment of human MFE-2 (domain or fragment)
chain: MGSPLRFDGRVVLVTGAGAGLGRAYALAFAERGALVVVNDLGGDFKGVGKGSLAADKVVEEIRRRGGKAVANYDSVEEGEKVVKTALDAFGRIDVVVNNAGILRDRSFARISDEDWDIIHRVHLRGSFQVTRAAWEHMKKQKYGRIIMTSSASGIYGNFGQANYSAAKLGLLGLANSLAIEGRKSNIHCNTIAPNAGSRMTQTVMPEDLVEALKPEYVAPLVLWLCHESCEKNGGLFEVGAGWIGKLRWERTLGAIVRQKNHPMTPEAVKANWKKICDFENASKPQSIQESTGSIIEVLSKIDS
notes: Made by site-directed mutagenesis of pLWRP51::HsDH; for the limits see the note of m1; also called E232K variant; source: E. coli BL21(DE3)pLysS, pLWRP51 vector, purified (Ni-NTA, Superdex 200)
B2: HsDH(W249G), patient variant of the 3R-hydroxyacyl-CoA dehydrogenase fragment of human MFE-2 (domain or fragment)
chain: MGSPLRFDGRVVLVTGAGAGLGRAYALAFAERGALVVVNDLGGDFKGVGKGSLAADKVVEEIRRRGGKAVANYDSVEEGEKVVKTALDAFGRIDVVVNNAGILRDRSFARISDEDWDIIHRVHLRGSFQVTRAAWEHMKKQKYGRIIMTSSASGIYGNFGQANYSAAKLGLLGLANSLAIEGRKSNIHCNTIAPNAGSRMTQTVMPEDLVEALKPEYVAPLVLWLCHESCEENGGLFEVGAGWIGKLRGERTLGAIVRQKNHPMTPEAVKANWKKICDFENASKPQSIQESTGSIIEVLSKIDS
notes: Made by site-directed mutagenesis of pLWRP51::HsDH; for the limits see the note of m1; also called W249G variant; source: E. coli BL21(DE3)pLysS, pLWRP51 vector, purified (Ni-NTA, Superdex 200)
B3: HsDH(N158D), patient variant of the 3R-hydroxyacyl-CoA dehydrogenase fragment of human MFE-2 (domain or fragment)
chain: MGSPLRFDGRVVLVTGAGAGLGRAYALAFAERGALVVVNDLGGDFKGVGKGSLAADKVVEEIRRRGGKAVANYDSVEEGEKVVKTALDAFGRIDVVVNNAGILRDRSFARISDEDWDIIHRVHLRGSFQVTRAAWEHMKKQKYGRIIMTSSASGIYGDFGQANYSAAKLGLLGLANSLAIEGRKSNIHCNTIAPNAGSRMTQTVMPEDLVEALKPEYVAPLVLWLCHESCEENGGLFEVGAGWIGKLRWERTLGAIVRQKNHPMTPEAVKANWKKICDFENASKPQSIQESTGSIIEVLSKIDS
notes: Made by site-directed mutagenesis of pLWRP51::HsDH; for the limits see the note of m1; also called N158D variant; source: E. coli BL21(DE3)pLysS, pLWRP51 vector, purified (Ni-NTA, Superdex 200)
B4: HsDH(T15A), patient variant of the 3R-hydroxyacyl-CoA dehydrogenase fragment of human MFE-2 (domain or fragment)
chain: MGSPLRFDGRVVLVAGAGAGLGRAYALAFAERGALVVVNDLGGDFKGVGKGSLAADKVVEEIRRRGGKAVANYDSVEEGEKVVKTALDAFGRIDVVVNNAGILRDRSFARISDEDWDIIHRVHLRGSFQVTRAAWEHMKKQKYGRIIMTSSASGIYGNFGQANYSAAKLGLLGLANSLAIEGRKSNIHCNTIAPNAGSRMTQTVMPEDLVEALKPEYVAPLVLWLCHESCEENGGLFEVGAGWIGKLRWERTLGAIVRQKNHPMTPEAVKANWKKICDFENASKPQSIQESTGSIIEVLSKIDS
notes: Made by site-directed mutagenesis of pLWRP51::HsDH; for the limits see the note of m1; also called T15A variant; source: E. coli BL21(DE3)pLysS, pLWRP51 vector, purified (Ni-NTA, Superdex 200)
B5: HsDH(R248C), patient variant of the 3R-hydroxyacyl-CoA dehydrogenase fragment of human MFE-2 (domain or fragment)
chain: MGSPLRFDGRVVLVTGAGAGLGRAYALAFAERGALVVVNDLGGDFKGVGKGSLAADKVVEEIRRRGGKAVANYDSVEEGEKVVKTALDAFGRIDVVVNNAGILRDRSFARISDEDWDIIHRVHLRGSFQVTRAAWEHMKKQKYGRIIMTSSASGIYGNFGQANYSAAKLGLLGLANSLAIEGRKSNIHCNTIAPNAGSRMTQTVMPEDLVEALKPEYVAPLVLWLCHESCEENGGLFEVGAGWIGKLCWERTLGAIVRQKNHPMTPEAVKANWKKICDFENASKPQSIQESTGSIIEVLSKIDS
notes: Made by site-directed mutagenesis of pLWRP51::HsDH; for the limits see the note of m1; also called R248C variant; source: E. coli BL21(DE3)pLysS, pLWRP51 vector, purified (Ni-NTA, Superdex 200)
B6: wild type 3R-hydroxyacyl-CoA dehydrogenase (DH) fragment of human MFE-2 (multifunctional enzyme type 2) (domain or fragment)
chain: MGSPLRFDGRVVLVTGAGAGLGRAYALAFAERGALVVVNDLGGDFKGVGKGSLAADKVVEEIRRRGGKAVANYDSVEEGEKVVKTALDAFGRIDVVVNNAGILRDRSFARISDEDWDIIHRVHLRGSFQVTRAAWEHMKKQKYGRIIMTSSASGIYGNFGQANYSAAKLGLLGLANSLAIEGRKSNIHCNTIAPNAGSRMTQTVMPEDLVEALKPEYVAPLVLWLCHESCEENGGLFEVGAGWIGKLRWERTLGAIVRQKNHPMTPEAVKANWKKICDFENASKPQSIQESTGSIIEVLSKIDS
notes: 3R-hydroxyacyl-CoA dehydrogenase (DH) fragment of human MFE-2 / D-bifunctional protein; also called HsDH; native HsDH; source: E. coli BL21(DE3)pLysS, pLWRP51::HsDH, purified (Ni-NTA, Superdex 200)

Biological target: the molecule itself
Experiment: SEC; Superdex 200 10/300 GL, 20 mM PIPES/HCl pH 6.8, 150 mM NaCl, 1 mM EDTA, 5% glycerol, 1 mM NaN3, 0.3 ml/min; retention times of wild type and variants compared

Q: Does B1 bind?
A: Result: binds

Q: Does B2 bind?
A: Result: binds

Q: Does B3 bind?
A: Result: binds

Q: Does B4 bind?
A: Result: binds

Q: Does B5 bind?
A: Result: binds

Biological target: the molecule itself
Experiment: static light scattering (SLS); purified recombinant protein; SLS as described previously [3]; the methods name it for the native HsDH protein

Q: B6 was tested. Which “stoichiometry N” value did it give?
A: Its value is 2.
